Where a chain is given by its changes, count along the chain named.
T1: hu-MCSP(D3 domain)-avi-his (human, UniProt Q6UVK1 1582-2224)
T1 construct: Recombinant D3 domain with avi and his tags; also called human MCSP(D3 domain)-avi-his; Human MCSP D3
T1 sequence: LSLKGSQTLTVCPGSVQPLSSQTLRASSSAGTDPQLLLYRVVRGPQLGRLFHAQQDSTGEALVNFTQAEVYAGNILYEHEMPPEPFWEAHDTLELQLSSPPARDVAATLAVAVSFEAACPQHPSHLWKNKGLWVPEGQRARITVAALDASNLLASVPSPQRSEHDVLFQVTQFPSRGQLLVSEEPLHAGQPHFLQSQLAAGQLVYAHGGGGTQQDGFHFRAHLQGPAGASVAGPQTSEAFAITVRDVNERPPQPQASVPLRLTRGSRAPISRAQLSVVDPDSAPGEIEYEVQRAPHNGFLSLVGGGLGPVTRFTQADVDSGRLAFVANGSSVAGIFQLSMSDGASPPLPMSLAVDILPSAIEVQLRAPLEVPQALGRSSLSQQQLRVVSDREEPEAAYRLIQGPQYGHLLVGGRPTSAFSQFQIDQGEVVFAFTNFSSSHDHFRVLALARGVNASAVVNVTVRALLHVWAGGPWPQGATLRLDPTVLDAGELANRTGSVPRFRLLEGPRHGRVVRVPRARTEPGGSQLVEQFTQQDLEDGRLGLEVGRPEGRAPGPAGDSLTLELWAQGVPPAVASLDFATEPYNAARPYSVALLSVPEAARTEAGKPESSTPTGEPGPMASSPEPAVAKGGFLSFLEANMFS

T2: cynomolgus MCSP D3 (cynomolgus, UniProt Q6UVK1 1582-2224 (human entry), limits assumed)
T2 construct: also called Cyno MCSP; cynomolgus homologue
T2 chain: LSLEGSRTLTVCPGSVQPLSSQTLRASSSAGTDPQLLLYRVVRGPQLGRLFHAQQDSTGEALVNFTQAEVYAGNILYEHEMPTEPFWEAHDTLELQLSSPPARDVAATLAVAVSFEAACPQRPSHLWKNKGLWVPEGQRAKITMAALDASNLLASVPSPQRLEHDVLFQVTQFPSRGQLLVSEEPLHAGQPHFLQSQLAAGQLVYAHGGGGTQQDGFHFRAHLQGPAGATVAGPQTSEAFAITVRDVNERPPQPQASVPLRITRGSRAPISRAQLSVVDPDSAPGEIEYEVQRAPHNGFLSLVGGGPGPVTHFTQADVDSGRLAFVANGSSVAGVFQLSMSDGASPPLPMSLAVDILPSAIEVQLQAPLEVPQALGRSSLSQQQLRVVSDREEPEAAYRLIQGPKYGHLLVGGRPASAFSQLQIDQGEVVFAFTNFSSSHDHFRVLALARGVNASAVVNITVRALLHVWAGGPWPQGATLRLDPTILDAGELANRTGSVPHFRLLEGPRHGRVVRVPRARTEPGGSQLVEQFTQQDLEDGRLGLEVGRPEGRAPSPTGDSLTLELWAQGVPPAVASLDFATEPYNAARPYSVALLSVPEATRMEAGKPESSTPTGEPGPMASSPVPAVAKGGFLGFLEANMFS

B1: 1 + 1 IgG Crossfab; VL/VH exchange (LC007/V9) (anti-MCSP/anti-huCD3) (bispecific antibody)
chain 1: DIVLTQSPSSLSASLGDRVTISCSASQGIRNYLNWYQQRPDGTVKLLIYYTSSLHSGVPSRFSGSGSGTDYSLTISNLEPEDIATYYCQQYSKLPWTFGGGTKLEIKRTVAAPSVFIFPPSDEQLKSGTASVVCLLNNFYPREAKVQWKVDNALQSGNSQESVTEQDSKDSTYSLSSTLTLSKADYEKHKVYACEVTHQGLSSPVTKSFNRGEC
chain 2: DIQMTQSPSSLSASVGDRVTITCRASQDIRNYLNWYQQKPGKAPKLLIYYTSRLESGVPSRFSGSGSGTDYTLTISSLQPEDFATYYCQQGNTLPWTFGQGTKVEIKSSASTKGPSVFPLAPSSKSTSGGTAALGCLVKDYFPEPVTVSWNSGALTSGVHTFPAVLQSSGLYSLSSVVTVPSSSLGTQTYICNVNHKPSNTKVDKKVEPKSCGGGGSGGGGSEVQLQESGPGLVKPSQSLSLTCSVTGYSITSGYYWNWIRQFPGNKLEWMGYITYDGSNNYNPSLKNRISITRDTSKNQFFLKLNSVTTEDTATYYCADFDYWGQGTTLTVSSASTKGPSVFPLAPSSKSTSGGTAALGCLVKDYFPEPVTVSWNSGALTSGVHTFPAVLQSSGLYSLSSVVTVPSSSLGTQTYICNVNHKPSNTKVDKKVEPKSCDKTHTCPPCPAPEAAGGPSVFLFPPKPKDTLMISRTPEVTCVVVDVSHEDPEVKFNWYVDGVEVHNAKTKPREEQYNSTYRVVSVLTVLHQDWLNGKEYKCKVSNKALGAPIEKTISKAKGQPREPQVCTLPPSRDELTKNQVSLSCAVKGFYPSDIAVEWESNGQPENNYKTTPPVLDSDGSFFLVSKLTVDKSRWQQGNVFSCSVMHEALHNHYTQKSLSLSPGK
chain 3: EVQLVESGGGLVQPGGSLRLSCAASGYSFTGYTMNWVRQAPGKGLEWVALINPYKGVSTYNQKFKDRFTISVDKSKNTAYLQMNSLRAEDTAVYYCARSGYYGDSDWYFDVWGQGTLVTVSSASVAAPSVFIFPPSDEQLKSGTASVVCLLNNFYPREAKVQWKVDNALQSGNSQESVTEQDSKDSTYSLSSTLTLSKADYEKHKVYACEVTHQGLSSPVTKSFNRGEC
chain 4: not shown
B2: 1 + 1 CrossMab; CL/CH1 exchange (LC007/V9) (anti-MCSP/anti-huCD3) (bispecific antibody)
chain 1: B1 chain 1
chain 2: EVQLQESGPGLVKPSQSLSLTCSVTGYSITSGYYWNWIRQFPGNKLEWMGYITYDGSNNYNPSLKNRISITRDTSKNQFFLKLNSVTTEDTATYYCADFDYWGQGTTLTVSSASTKGPSVFPLAPSSKSTSGGTAALGCLVKDYFPEPVTVSWNSGALTSGVHTFPAVLQSSGLYSLSSVVTVPSSSLGTQTYICNVNHKPSNTKVDKKVEPKSCDKTHTCPPCPAPEAAGGPSVFLFPPKPKDTLMISRTPEVTCVVVDVSHEDPEVKFNWYVDGVEVHNAKTKPREEQYNSTYRVVSVLTVLHQDWLNGKEYKCKVSNKALGAPIEKTISKAKGQPREPQVCTLPPSRDELTKNQVSLSCAVKGFYPSDIAVEWESNGQPENNYKTTPPVLDSDGSFFLVSKLTVDKSRWQQGNVFSCSVMHEALHNHYTQKSLSLSPGK
chain 3: DIQMTQSPSSLSASVGDRVTITCRASQDIRNYLNWYQQKPGKAPKLLIYYTSRLESGVPSRFSGSGSGTDYTLTISSLQPEDFATYYCQQGNTLPWTFGQGTKVEIKSSASTKGPSVFPLAPSSKSTSGGTAALGCLVKDYFPEPVTVSWNSGALTSGVHTFPAVLQSSGLYSLSSVVTVPSSSLGTQTYICNVNHKPSNTKVDKKVEPKSC
chain 4: not shown
B3: M4-3(A7)/ML2(E10) IgG (antibody, V domains shown)
VH: QVQLQESGPGLVKPSQTLSLTCTVSGGSITDGYYWNWIRQHPGKGLEWIGYITFDGRNNYNPSLKSRVTISRDTSKNQFSLKLSSVTAADTAVYYCADFDYWGQGTLVTVSS
VL: DIQMTQSPSSLSASVGDRVTITCRASYGIRGYLNWYQQKPGKAPKLLIYYTSSLHSGVPSRFSGSGSGTDFTLTISSLQPEDFATYHCQQYSKLPWTFGQGTKVEIK
notes: Human IgG1
B4: M4-3(C1)/ML2 IgG (antibody, V domains shown)
VH: B3 VH with D31S, R57S
VL: DIQMTQSPSSLSASVGDRVTITCRASQGIRNYLNWYQQKPGKAPKLLIYYTSSLHSGVPSRFSGSGSGTDFTLTISSLQPEDFATYYCQQYSKLPWTFGQGTKVEIKR
notes: Human IgG1; copies: 2 + 2
B5: M4-(A7)/ML2(C5) IgG (antibody, V domains shown)
VH: B3 VH
VL: B3 VL with Y27R, G31E, S52G, H87Y, K93E
notes: Human IgG1; also called M4-3(A7)/ML2(C5)
B6: M4-3(A7)/ML2 IgG (antibody, V domains shown)
VH: B3 VH
VL: B3 VL with Y27Q, G31N, H87Y
notes: Human IgG1
B7: M4-3/ML2(C5) IgG (antibody, V domains shown)
VH: B3 VH with D31S, F54Y, R57S
VL: B3 VL with Y27R, G31E, S52G, H87Y, K93E
notes: Human IgG1
B8: M4-3(A7)/ML2(G3) IgG (antibody, V domains shown)
VH: B3 VH
VL: B3 VL with Y27Q, G31N, F71Y, H87Y, K93A
notes: Human IgG1
B9: M4-3(D6)/ML2 IgG (antibody, V domains shown)
VH: B3 VH with D31S, R57K
VL: B3 VL with Y27Q, G31N, H87Y
notes: Human IgG1
B10: M4-3/ML2(G3) IgG (antibody, V domains shown)
VH: B3 VH with D31S, F54Y, R57S
VL: B3 VL with Y27Q, G31N, F71Y, H87Y, K93A
notes: Human IgG1
B11: M4-3(B7)/ML2 IgG (antibody, V domains shown)
VH: B3 VH with D31S, R57I
VL: B3 VL with Y27Q, G31N, H87Y
notes: Human IgG1
B12: M4-3/ML2(E10/G3) IgG (antibody, V domains shown)
VH: B3 VH with D31S, F54Y, R57S
VL: B3 VL with K93A
notes: Human IgG1
B13: M4-3(B8)/ML2 IgG (antibody, V domains shown)
VH: B3 VH with D31S
VL: B3 VL with Y27Q, G31N, H87Y
notes: Human IgG1
B14: M4-3/ML2(E10) IgG (antibody, V domains shown)
VH: B3 VH with D31S, F54Y, R57S
VL: B3 VL
notes: Human IgG1
B15: M4-3/ML2(C5/G3) IgG (antibody, V domains shown)
VH: B3 VH with D31S, F54Y, R57S
VL: B3 VL with Y27R, G31E, S52G, H87Y, K93A
notes: Human IgG1

Molecular target: human MCSP expressed on tumor cells (Colo-38, WM266-4, A375, MV-3, HCT-116) (human, UniProt Q6UVK1 30-2322)
Assay: cell-based or functional assay

Sequence of human MCSP expressed on tumor cells (Colo-38, WM266-4, A375, MV-3, HCT-116) (Q6UVK1 30-2322): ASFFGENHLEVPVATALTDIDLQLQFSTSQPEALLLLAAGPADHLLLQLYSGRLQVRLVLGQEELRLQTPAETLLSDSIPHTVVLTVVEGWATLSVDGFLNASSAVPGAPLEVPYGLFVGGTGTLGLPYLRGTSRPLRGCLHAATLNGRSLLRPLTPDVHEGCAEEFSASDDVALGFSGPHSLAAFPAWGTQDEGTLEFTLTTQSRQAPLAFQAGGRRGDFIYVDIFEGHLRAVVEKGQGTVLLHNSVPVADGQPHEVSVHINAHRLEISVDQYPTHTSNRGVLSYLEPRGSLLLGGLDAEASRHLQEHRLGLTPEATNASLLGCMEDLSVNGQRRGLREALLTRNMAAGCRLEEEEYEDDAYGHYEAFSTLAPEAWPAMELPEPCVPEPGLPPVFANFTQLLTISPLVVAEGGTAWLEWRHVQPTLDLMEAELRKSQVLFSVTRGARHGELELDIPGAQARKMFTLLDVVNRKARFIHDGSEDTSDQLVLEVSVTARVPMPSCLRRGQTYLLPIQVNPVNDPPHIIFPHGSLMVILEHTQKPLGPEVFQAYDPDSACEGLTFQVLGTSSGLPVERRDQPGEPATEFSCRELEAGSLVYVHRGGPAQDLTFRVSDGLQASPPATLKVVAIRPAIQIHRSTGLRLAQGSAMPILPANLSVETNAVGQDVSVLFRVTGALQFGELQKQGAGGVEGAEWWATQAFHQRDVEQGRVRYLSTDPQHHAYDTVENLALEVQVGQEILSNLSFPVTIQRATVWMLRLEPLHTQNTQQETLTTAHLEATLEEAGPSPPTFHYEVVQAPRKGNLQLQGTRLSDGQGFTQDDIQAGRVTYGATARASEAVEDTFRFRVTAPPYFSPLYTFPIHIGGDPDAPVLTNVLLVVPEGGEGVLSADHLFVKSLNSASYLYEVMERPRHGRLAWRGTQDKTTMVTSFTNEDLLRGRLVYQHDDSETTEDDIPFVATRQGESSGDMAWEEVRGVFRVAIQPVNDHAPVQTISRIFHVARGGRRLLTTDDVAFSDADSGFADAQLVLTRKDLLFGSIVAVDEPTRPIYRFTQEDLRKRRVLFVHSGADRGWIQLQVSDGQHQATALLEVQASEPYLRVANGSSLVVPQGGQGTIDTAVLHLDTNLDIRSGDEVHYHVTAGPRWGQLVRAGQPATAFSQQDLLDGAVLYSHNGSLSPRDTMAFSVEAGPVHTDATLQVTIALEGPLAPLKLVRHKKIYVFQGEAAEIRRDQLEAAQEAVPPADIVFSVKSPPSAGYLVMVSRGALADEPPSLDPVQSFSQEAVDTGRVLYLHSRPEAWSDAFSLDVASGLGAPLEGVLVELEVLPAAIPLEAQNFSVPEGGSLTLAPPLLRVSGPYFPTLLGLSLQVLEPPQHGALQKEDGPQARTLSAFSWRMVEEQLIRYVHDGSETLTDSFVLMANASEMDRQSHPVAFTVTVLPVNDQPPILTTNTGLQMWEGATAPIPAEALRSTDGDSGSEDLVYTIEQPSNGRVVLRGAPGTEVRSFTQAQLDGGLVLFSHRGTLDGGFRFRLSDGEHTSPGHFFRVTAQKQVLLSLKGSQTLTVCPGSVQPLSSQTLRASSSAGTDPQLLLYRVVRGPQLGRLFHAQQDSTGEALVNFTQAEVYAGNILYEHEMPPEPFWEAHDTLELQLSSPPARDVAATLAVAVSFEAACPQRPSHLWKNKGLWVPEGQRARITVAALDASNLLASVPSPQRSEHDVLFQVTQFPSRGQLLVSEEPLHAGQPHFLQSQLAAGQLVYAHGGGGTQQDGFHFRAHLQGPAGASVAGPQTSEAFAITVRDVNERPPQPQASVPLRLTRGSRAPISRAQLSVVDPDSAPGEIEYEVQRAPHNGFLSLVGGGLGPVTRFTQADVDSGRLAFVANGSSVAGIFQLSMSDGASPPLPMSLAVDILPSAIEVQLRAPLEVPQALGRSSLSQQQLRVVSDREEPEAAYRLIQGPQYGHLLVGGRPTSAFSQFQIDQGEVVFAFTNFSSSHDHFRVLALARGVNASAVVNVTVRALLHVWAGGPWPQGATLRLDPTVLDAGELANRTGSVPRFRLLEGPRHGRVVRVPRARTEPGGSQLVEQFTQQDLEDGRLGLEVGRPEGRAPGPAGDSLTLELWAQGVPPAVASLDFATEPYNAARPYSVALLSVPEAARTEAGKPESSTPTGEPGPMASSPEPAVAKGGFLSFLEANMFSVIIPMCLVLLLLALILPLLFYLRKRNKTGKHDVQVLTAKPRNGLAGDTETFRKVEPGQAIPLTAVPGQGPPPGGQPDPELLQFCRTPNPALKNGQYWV

Row | Binder | EC50 of T cell-mediated killing (LDH release), MV-3 cells, human PBMCs E:T 10:1, 21 h [nM] | EC50 of T cell-mediated killing (LDH release), WM266-4 cells, human PBMCs E:T 10:1, 21 h [nM]
1 | B1 | 0.0409 | 0.0284
2 | B2 | 0.0884 | 0.0539

Molecular target: T1, hu-MCSP(D3 domain)-avi-his
Assay: ratio of ProteOn IgG KD, parent M4-3/ML2 against variant

Row | Binder | Fold increase over parent [fold]
3 | B3 | 6.7
4 | B4 | 2.2
5 | B5 | 28.6
6 | B6 | 2.5
7 | B7 | 5
8 | B8 | 28.6
9 | B9 | 5
10 | B10 | 6.7
11 | B11 | 4
12 | B12 | 5
13 | B13 | 2.2
14 | B14 | 2
15 | B15 | 2.9

Molecular target: T2, cynomolgus MCSP D3
Assay: as above

Row | Binder | Fold increase over parent [fold]
16 | B3 | 2.9
17 | B4 | 2.5
18 | B5 | 10
19 | B6 | 2
20 | B7 | 2
21 | B8 | 10
22 | B9 | 2
23 | B10 | 3.3
24 | B11 | 2.9
25 | B12 | 2.2
26 | B13 | 2
27 | B14 | 1
28 | B15 | 2

Molecular target: T1, hu-MCSP(D3 domain)-avi-his
Assay: SPR ProteOn XPR36, 25 C; IgG captured via anti-human F(ab')2, MCSP D3 as analyte

Row | Binder | Kd [nM]
29 | B3 | 0.3
30 | B4 | 0.9
31 | B5 | 0.7
32 | B6 | 0.8
33 | B7 | 0.4
34 | B8 | 0.07
35 | B9 | 0.4
36 | B10 | 0.3
37 | B11 | 0.5
38 | B12 | 0.4
39 | B13 | 0.9
40 | B14 | 1
41 | B15 | 0.7

Molecular target: T2, cynomolgus MCSP D3
Assay: as above

Row | Binder | Kd [nM]
42 | B3 | 0.7
43 | B4 | 0.8
44 | B5 | 0.2
45 | B6 | 1
46 | B7 | 1
47 | B8 | 0.2
48 | B9 | 1
49 | B10 | 0.6
50 | B11 | 0.7
51 | B12 | 0.9
52 | B13 | 1
53 | B14 | 2
54 | B15 | 1

— patent publication US20140242080A1 (Hoffmann-La Roche, published 2014)
